Substitutions are numbered along the chain they refer to. “And” between values parts separate entries of the source, which are not always exact repeats. Equal values may be shown once.

The target of experiment [1] is human CD127 ECD (human) (UniProt P16871). The experiment can be described thus: SPR, BIAcore 3000; antibody captured on anti-human IgG (Fc), CD127 ECD 16-512 nM as analyte, 1:1 Langmuir fit. For orientation: Surface plasmon resonance follows binding to a sensor surface in real time, without labels.
The target of experiment [2] is IL7R (analyte of the CDRH3 variant assays) (Homo sapiens (Human)) (UniProt P16871). The experiment is described as follows: SPR competition, BIAcore; IL7R 64 nM pre-incubated 3 h with antibody 1-256 nM, run over immobilised IL7 (competitor); run 1.
Experiment [3] has the same target. The experiment is described as follows: SPR, BIAcore T100; antibody captured on anti-human IgG (CM3), IL-7R 1-256 nM as analyte, 1:1 fit, 25 C.
The target is the same in experiment [4]. The experiment can be described thus: SPR, BIAcore 3000; antibody captured on anti-human IgG (CM5), IL7R 1-64 nM as analyte, 1:1 fit, 25 C.
For experiment [5] the target is unchanged. The experiment can be described thus: SPR competition, BIAcore; IL7R 64 nM pre-incubated 3 h with antibody 0.25-256 nM, run over immobilised IL7 (competitor); run 2.
For experiment [6], the target named is human CD127 ECD (human) (UniProt P16871). The experiment can be described thus: SPR, BIAcore 3000; antibody captured on anti-human IgG (Fc), CD127 ECD as analyte; the column head says M, but kd/ka gives 1.9e-8 M, so nM is meant.
Experiment [7] has the same target. The experiment can be described thus: SPR, BIAcore 3000; antibody captured on anti-human IgG (Fc), CD127 ECD as analyte; the column head says M, but kd/ka gives 1.5e-8 M, so nM is meant.
Experiment [8] has the same target. The experiment is described as follows: SPR, BIAcore 3000; antibody captured on anti-human IgG (Fc), CD127 ECD as analyte; the column head says M, but kd/ka gives 2.8e-8 M, so nM is meant.
Experiment [9] shares this target. The experiment can be described thus: SPR, BIAcore 3000; antibody captured on anti-human IgG (Fc), CD127 ECD as analyte; the column head says M, but kd/ka gives 1.7e-8 M, so nM is meant.

B1: 1A11 Chimera (antibody, human IgG1, V domains shown)
VH: EVQLQQSGPELLKPGASMKISCKASGYSFTGYTMNWVKQSHGKNLEWIGLINPYNGVTSYNQKFKGKATLTVAKSSSTAYMELLSLTSEDSAVYYCARGDGNYWYFDVWGAGTTVTVSS
VL: EIVLTQSPAITAASLGQKVTITCSASSSVTYMHWYQQKSGTSPKPWIYEISKLASGVPVRFSGSGSGTSYSLTISSMEAEDAAIYYCQEWNYPYTFGGGTKLEIK
As a reminder, the Kd is the equilibrium constant for the complex coming apart. Low readings indicate higher affinity, high ones lower affinity. One may read the koff as the rate constant with which the complex falls apart. In general, kon refers to the second-order rate constant of association. On to B1, for which, in experiment [1], the Kd was 3.22 nM, the koff is 0.000298 s⁻¹ and the association rate constant (kon) was determined as 92600 M⁻¹ s⁻¹.

B2: 1A11 H3L6 (antibody, V domains shown)
VH: QVQLVQSGAEVKKPGASVKVSCKASGYTFTGYTMNWVRQAPGQGLEWMGLINPYNGVTSYNQKFKGRVTLTRDTSISTAYMELSRLRSDDTAVYYCARGDGNYWYFDVWGQGTTVTVSS
VL: EIVLTQSPATLSLSPGERATLSCSASSSVTYMHWYQQKPGQAPRPWIYEISKLASGVPARFSGSGSGTDYTLTISSLEPEDFAVYYCQEWNYPYTFGGGTKVEIK
In experiment [1], B2 had a Kd of 155 nM, an off-rate constant (koff) of 0.00282 s⁻¹ and a kon of 18200 M⁻¹ s⁻¹.

B3: BPC4402 (antibody, V domains shown)
VH: B2 VH with F106I
VL: B2 VL with W46L, V57I, Y70F
Broadly, the IC50 is the concentration needed to halve the response being measured. Read a high IC50 as weaker potency in that assay. In the case of B3, the IC50 in experiment [2] turned out to be 15.2 nM. Also, in experiment [3], the Kd was 0.04 nM, the koff came out at 3.32e-05 s⁻¹ and the on-rate (kon) was found to be 826000 M⁻¹ s⁻¹. Further, in [4], the equilibrium dissociation constant (Kd) is 0.668 nM, the koff was 0.0002 s⁻¹ and the on-rate (kon) came out at 300000 M⁻¹ s⁻¹.

B4: BPC4401 (antibody, V domains shown)
VH: B2 VH with F106H
VL: B2 VL with W46L, V57I, Y70F
Turning to B4, the 50% inhibitory concentration (IC50) in experiment [5] is 14.9 nM and 15.2 nM; in experiment [2], 14.8 nM. The Kd was found to be 0.034 nM in [3] and 0.582 nM in experiment [4]. Further, the values for the off-rate constant (koff) in [3] and in experiment [4] were 3.06e-05 s⁻¹ and 0.000196 s⁻¹, respectively. Also, the kon worked out at 910000 M⁻¹ s⁻¹ in [3] and 337000 M⁻¹ s⁻¹ in [4].

B5: 1A11 H3L5 (antibody, V domains shown)
VH: B2 VH
VL: B2 VL with V57I
As for B5, in experiment [1], the dissociation constant Kd was found to be 207 nM, the koff was 0.00607 s⁻¹ and the on-rate (kon) stood at 29400 M⁻¹ s⁻¹.

B6: 6A3 H4-61_6L27 (antibody, V domains shown)
VH: QVQLQESGPGLVKPSETLSLTCTVSGYSVSTDYAWNWIRQPPGKGLEWIGYIFYSGSTTYTPSLKSRVTISRDTSKNQFSLKLSSVTAADTAVYYCARGGYDVNYFDYWGQGTTVTVSS
VL: DIQMLQSPSSLSASVGDRVTITCLASQTIGYWLAWYQQKPGKAPKLLIYAATRLADGVPSRFSGSGSGTMFTLTISSLQPEDFATYYCQQFFSYPWTFGGGTKVEIK
In [1], B6 came in with a koff of 0.000299 s⁻¹ and an on-rate (kon) of 16000 M⁻¹ s⁻¹. In experiment [6], this molecule gave a Kd of 19 nM.

B7: 6A3 H4-61_8L27 (antibody, V domains shown)
VH: B6 VH with S30T, V68I
VL: B6 VL
Take B7: in experiment [1], the off-rate constant (koff) was 0.00037 s⁻¹ and the kon turned out to be 24300 M⁻¹ s⁻¹. The molecule further had a Kd in [7] of 15 nM.

B8: 6A3 H4-61_7L27 (antibody, V domains shown)
VH: B6 VH with S30T
VL: B6 VL
Regarding B8, the Kd in experiment [8] is 28 nM. In experiment [1], this molecule came in with a koff of 0.00104 s⁻¹ and a kon of 37700 M⁻¹ s⁻¹.

B9: 6A3 H4-61_9L27 (antibody, V domains shown)
VH: B6 VH with S30T, I49M, V68I
VL: B6 VL
Molecule B9 gave a Kd in experiment [9] of 18 nM. In experiment [1], the koff came to 0.00122 s⁻¹ and the kon came to 69900 M⁻¹ s⁻¹.

The record behind these values is US20110200585A1.
